From the DeepSol protein solubility set

test: soluble on expression in E. coli; label from the status in PepcDB or PDB records

Sequence | soluble on expression in E. coli
MQPYLIPQPGIRVSLSELIEMRHRVREVQLFSTPSRRSPLIGLHHSKLRGRGVDFDQVRVYQAGDDVRSIDWRVTARTQEPHTKLFHEERERPIFILVEQSRRLFFGSGLMFKSVLAAQAAALIGWAALEHNDRVGGLVFGDNEHYEIKPRRSKQSLLQLLNRLVRVNQSLHTEIPADRDAFGTALRRAREVLRPGSLVIVLCDERALSDVAEQQLSLLSRHSDLLLLPLSDPLDRALPAAGLLRFAERGAQLELDTLNPELRRAYRQQGEDRSARWELLAQKLRVLLMPLSTQSELVEQLREYLNAQRPVKRK | not soluble
MQQLKKIGFNEYEAKSYVSLVKQGPVTAYQVSKDSGVPRARIYEILGNLVEKGIVMKEEINDTTRYSPLPVEIFLQKAQSEWQSTYEGISDSLKKLETSEEKTDNRVITLKDNQTIISYCQALIKKAERRIVISMWDEMYEALKEDLSEVTDKVTIQGITLHVENPIKNLEAHRITPYTETLSTEHWFIVSIDSKEMIYGPSLAERNIAFYTDDPVHIYLLEDYVWHDVLVNRLVRRNQDDLQQWITAERKSFFMGK | not soluble
MQQPEQYCRFLCLVAHEFFHLWNIKRIRPQAFEVFDYDSENYTTSLWFVEGVTSYFDQLIPLWAGLFDAPTYLKLLSDSLNRYFHTPGRFVQSLSAASFDAWIKLYRPDENSINSQMSYYLKGELVALLLDLRLEHHHHHH | not soluble
MQQPVINQQPGYNPQGMNPVQQFEMHQQQHQQAITTQPGVFVQPAPGSVWMPMPPAIQGVPTGLEYLTYLDTIMVHQIKELIEIVTDWETKNKYVLKNANGEQCYYAFEESGCCERQCCGPQRGFVMHIVDNFKREVLTIKREFKCCGGGCCGCLACIGCCQQECIIETPSMGVLGIIRQRCGCMSSNYDIMDGDGNVIFQIDGPCCCMLCGCQDKEFPIKTANNGTVVGAITKKWGGCFREAFTDADTFAVNFPGDLDVKLKGVLIGATFLIDFMEFEQQSQNRNNGGAYYSSS | not soluble
MQQRRPVRRALLSVSDKAGIVEFAQALSARGVELLSTGGTARLLAEKGLPVTEVSDYTGFPEMMDGRVKTLHPKVHGGILGRRGQDDAIMEEHQIQPIDMVVVNLYPFAQTVAREGCSLEDAVENIDIGGPTMVRSAAKNHKDVAIVVKSSDYDAIIKEMDDNEGSLTLATRFDLAIKAFEHTAAYDSMIANYFGSMVPAYHGESKEAAGRFPRTLNLNFIKKLDMRYGENSHQQAAFYIEENVKEASVATATQVQGKALSYNNIADTDAALECVKEFAEPACVIVKHANPCGVAIGNSILDAYDRAYKTDPTSAFGGIIAFNRELDAETAQAIISRQFVEVIIAPSASEEALKITAAKQNVRVLTCGQWGERVPGLDFKRVNGGLLVQDRDLGMVGAEELRVVTKRQPSEQELRDALFCWKVAKFVKSNAIVYAKNNMTIGIGAGQMSRVYSAKIAGIKAADEGLEVKGSSMASDAFFPFRDGIDAAAAAGVTCVIQPGGSIRDDEVIAAADEHGIAMLFTDMRHFRH | soluble
MQREQTKVFKRVAGIKDKAAIKTLISAAYRQIFERDIAPYIAQNEFSGWESKLGNGEITVKEFIEGLGYSNLYLKEFYTPYPNTKVIELGTKHFLGRAPIDQAEIRKYNQILATQGIRAFINALVNSQEYNEVFGEDTVPYRRFPTLPALEHHHHHH | soluble
MQRHPTPNARNSLWRWTDAKHPLRVALNYVVIVLARISPSLHAKNWLLARIGVTVGDGVAWGLESTPDVFWPELVTVGDDAIIGYDATLLCHEFLHDEYRTGAVVVEDRAMIGAGAVVLPGVTIGADAQVAANSLVTADVPPGETVAGVPLEHHHHHH | not soluble
MQRVGNTFSNESRVASRCPSVGLAERNRVATMPVRLLRDSPAAQEDNDHARDGFQMKLDAHGFAPEELVVQVDGQWLMVTGQQQLDVRDPERVSYRMSQKVHRKMLPSNLSPTAMTCCLTPSGQLWVRGQCVALALPEAQTGPSPRLGSLGSKASNLTR | soluble
MQSNTPQPNPAPFLKAGETVVLFDGVCKLCNGWAKFIIRHDRRQRIRLATVQSPEGQALLEWAGLPLDRFDTMAAVTGDRLYVRSEAFFVALSDFPAPWRWLRVLRFFPAVIRDWLYDRIALNRYRLFGRYDSCLLPTPDHERRFLKASPLEHHHHHH | soluble
MQSVDVAIVGGGMVGLAVACGLQGSGLRVAVLEQRVPEPLAVDALPQLRVSAINAASEKLLTRLGVWQDILARRASCYHGMEVWDKDSFGHISFDDQSMGYSHLGHIVENSVIHYALWNKAQQSSDITLLAPTELQQVAWGENETFLTLKDGSMLTARLVIGADGANSWLRNKADIPLTFWDYQHHALVATIRTEEPHDAVARQVFHGEGILAFLPLSDPHLCSIVWSLSPEEAQRMQQASEDEFNRALNIAFDNRLGLCKVESARQVFPLTGRYACQFAAHRLALVGDAAHTIHPLAGQGVNLGFMDAAELIAELKRLHRQGKDIGQYIYLRRYERSRKHSAALMLAGMQGFRDLFSGANPAKKLLRDIGLKLADTLPGVKPQLIRQAMGLNDLPEWLRLEHHHHHH | soluble
MQTLKYISGYSPDIQRQVQQLLESGKLGDVLLRRHPQVHEIRSDKALYDYTQGIKNQFLRQSSPLSKVIFDDKISMSHHALGLHSYVARVQGNKIKAKNEIRISSRLKRVPEPLLRMVVVHELAHLKEKDHNKAFYNLCTYMEPDYHQFEFDLRLLLTCIDANQSPYATNSINLEHHHHHH | soluble
MQTVIFGRSGCPYSVRAKDLAEKLSNERDDFQYQYVDIRAEGITKEDLQQKAGKPVETVPQIFVDQQHIGGYTDFAAWVKENLDA | soluble
MQVINLKYPVALSQIPEGPIVLALGFFDGVHRGHQQVVATARQAAQAQHAKLAVMTFDQHPSVVFKHTDPQQVRYLTTIDQKTALMSELGVDILYVLHFDATVGAMPPQTFVDQLIVGLHAQTVVAGFDYTYGPAEIANMQRLNDYGHNRFEIIEVPKAELDAEKISSTRIRRALDAGDIDTANRLLGYQYETAGEVVHGEARGRTLGFPTANVAHGPNTRVPGIGIYATMVQIGTRWVMGMASVGRNVTFGDHRPITVEIYLLDFRGDLYGHNLTVRWGHRMRGEIKFAGADALVAQLKRDEQNTRDYYVAHPFVVAPRIQVAQQSNRLEAQ | not soluble
MQWQTKLPLIAILRGITPDEALAHVGAVIDAGFDAVEIPLNSPQWEQSIPAIVDAYGDKALIGAGTVLKPEQVDALARMGCQLIVTPNIHSEVIRRAVGYGMTVCPGCATATEAFTALEAGAQALKIFPSSAFGPQYIKALKAVLPSDIAVFAVGGVTPENLAQWIDAGCAGAGLGSDLYRAGQSVERTAQQAAAFVKAYREAVQLHHHHHH | soluble
MQYVKIKDAIVEQIDAGMLMPRQKLPAERKLAESFDTTRVTLREALSLLEAEGKIYREDRRGWFISPAPLRYDPTQTLNFTNMALAQNRQPKTELVSAKAVIANKQATRLLKLKPFSDVYRVDRVRYLDNRPVVYVTNYIRPELFPNLLDFDLSQSLTDLYREHYATQYQTIHYRISTSSLLGEMAQALRATSGTPAMVVERVNYNQKGELIDCDIEYWRHDAITIESIAELKR | not soluble
MRADGRSSCELRPVHIHPHYMKHAEGSVLIEIGDTKVICTATVEEKVPSFMRGGGKGWITAEYGMLPRATEQRNVREASKGKVSGRTMEIQRLIGRALRSVVDLEQLGERTIWIDCDVIQADGGTRTASITGAYVALVLALAKLVEEGKLEALPIRDFLAATSVGIDPEHGVILDLDYNEDARAKVDMNVVMTGAGQFVEIQGTGEEAVFSRAELDELLEAAQIGIEQLIAVQRRALGEWAARIGEKKEAAEEDTE | not soluble
MRALIRYEDVPSKLWTLPKMTDFWGIGKRTEKRLNKLGISSIKELTNADPLLLKQKLGTIGLQHFFHANGIDESNVRLEHHHHHH | not soluble
MRAQDLPPLPETPGVYLWKRGEEVLYVGKAKSLRARVKSYFHAEGKARRIAEEATGLDFIATRDEVEALLLEANLIKAHRPLYNVLLKDDKHYPFLKLTNEPFPTLLVVRRVEEDGAKYYGPFPEAGALRRIKTLIDRLFPLRKNSGYPMKRRRYPCLNYSMGRCLAPCVGKADPEAYQEVVRQVEAVLEGRVDGLLQELEAKMREAARRLEFERAAEIRDQMEALRAFFSTDQQAFDPEMGDLDFLGMARSGALAVVQLYQVRSGRILGRISRVVEKEEATDEEILWAFLRDHYLEASPLPPLVLLPFPLEDLESLAELLKRRAGRKVELRVPKKGEKARLLELAERNARLALETELKLRERRGEHPALKALQDLLGLPARPWRLEGYDISHLQGQARVFSIAVFEGGRPKRQEYRRMRLKAGNDDYAAMEEGVFRRYTGSLKDLPLPDLLLIDGGVGQVRAAARALERAGLRLPLVGLAKGEEVLVTPEGRELRLPLTHPALQLLIHLRDEAHQNGLRYHRKRRSEELFRVLQGIPGIGEKRRRLLLERYGGLRALKEAPLEELARLPGMSLEAARALKAALAEEEPA | soluble
MRARSSLSAGQREELVALFEQGYSYWAAAHHVGVGVYPVRALFRRFLLHGKLCLVEKPSKQQYSFEIKKEVVQRHLAGESKMDLAREFGLSSDQMVGYWSRKWRKGGDDALKLKPKGRPKGSAKPKVLTEEDKLRRENERLRAENAYLKKLRDLKNQGHALEHHHHHH | not soluble
MRCGIAGLCARAKKVLGEDPAGGTLLVFRGRMGDRLKILHWDGQDFCLYYKVLERGHFPWPKATEGKVALTPAQMAMLWEGIDWRQPRWTSAPTRM | not soluble
MRDYATTAAGFDLQRTAAATLSGTLQALNACVECCDRHALPGRIALFWEGKDGSRASYTFSELKALSGRFANFLQAQGVRPGDCVAGLLPRTPELLVTILGAWRLGAVYQPLFTAFGPKAIEHRVATAGSKVLVTDAANRDKLDELADPPLAVTVGGPKGQGIRRGDFSFWAELERYPAEFEPVPRSGEDPFLMMFTSGTTGLAKPVPVPLKAILAFVGYLREAVDLRPEDAFWNLADPGWAYGLYYAVAGPLAMGHPTTFYEGPFSVESTCRIIRDYGITNLAGSPTAYRLLMAAGAAAETALKGRLRAVSSAGEPLTPEVIRWFADRLGTTIHDHYGQTELGMVLCNHHALAHPVRVGAAGFACPGHRVVVLDDDLNELPPGQPGILALDRRRSPLMWFPGYQGLETAAFVGDYYLSGDTVELNEDGSISFVGRADDVITTSGYRVGPFDVESALIEHPAVMEAAVIGKPDPERTELVKAFVVLCAGHRPTPELADALQRYVRQRLSAHAYPREIEFLEELPKTPSGKIQRFLLRNQEIARQREAAPRAAAAN | not soluble
MRDYKQLNGLALAYVGDAIYEIYIRDYLVSLGQTKPNVLHRMATHYVSAKAQASLMQAMLAGEMLTEEEEVMYKRGRNAKSHTFAKNADVTTYRVATGFESLMGYLHLTQQKERLEELINWCIKKVGETNEK | not soluble
MREAVIVAGARTPIGKAKRGSLKTVRPDDLGALVVKETLKRANYEGPIDDLIFGCAMPEAEQGLNMARNIGGLAGLSYDVPAITINRYCSSGLQSIAYGAERIMLGHSEAVLSGGAESMSLVPMMGHVVRPNSRLVEAAPEYYMGMGHTAEQVAVKYGISREEQDAFAVRSHQRAAKALAAGNFADETVSVDVTLRTVGANNKLQEETITFAQDEGVRAETTLDILGKLRPAFNVRGSVTAGNSSQMSDGAASVLLMDREKAVSDGMKPLAKFRSFAVAGVPPEVMGIGPIAAIPKALKLAGLELSDIGLFELNEAFASQSIQVIRELGLDEEKVNVNGGAIALGHPLGCTGAKLTLSLIHEMKRRNEQFGIVTMCIGGGMGAAGVFELL | not soluble
